Source: patent US8029979B2, “Method for determining the substrate specificity of an enzyme” (JPT Peptide Technologies GmbH, priority 2001, dated 2011)

Target: T1, protein kinase A (Bos taurus, UniProt P00517)
T1 construct: purchased Sigma P26452 as printed
Assay: Incubation of modified glass surface (960 spots) with protein kinase A (FIG. 7, Example 27)
Format: biochemical
Settings: aldehyde-functionalised glass, amino-oxy linkage, protein kinase A 10 U/mL, 30 min at 25° C.
Procedure: FIG. 7. A glass surface modified with the peptide Dpr(Aoa)-Leu-Arg-Arg-Ala-Ser-Leu-Gly-NH2 (see Example 22) was first pre-incubated for 10 minutes using 10 ml of 100 μM ATP solution in 50 mM of sodium phosphate buffer pH 7.5. […] After incubation for 30 min at 25° C. the phosphorylation of the corresponding peptides was detected using a FUJIFILM PhosphorImager (see Example 14). […] It is furthermore clear that the resolution of the PhosphorImager used here is sufficient to analyse more than 950 measurement points per biochip.
A glass surface modified with the peptide Dpr(Aoa)-Leu-Arg-Arg-Ala-Ser-Leu-Gly-NH2 (see Example 22) was incubated with 10 mL of 100 μM ATP in kinase buffer (50 mM tris-HCl, 150 mM NaCl, 30 mM MgCl2, 4 mM DTT, 2 mM EGTA, pH 7.5) for 10 minutes at room temperature. The glass surface was dried and a second unmodified glass surface of the same dimensions was then placed on the peptide-modified glass surface. […] Incubation was then carried out for 30 min at room temperature in an almost water-saturated atmosphere. […]
After drying the glass surface the quantity of radioactive phosphate incorporated in the glass-surface-bound peptides was determined using a PhosphorImager system (FLA-3000, FUJIFILM) (see FIG. 7).

“Dpr(Aoa)-Leu-Arg-Arg-Ala-Ser-Leu-Gly-NH2 ({Dpr(Aoa)}-LRRASLG-NH2)” was tested, and the “linking of the immobilised kinase substrate tolerated by protein kinase A” value was “tolerated by the protein kinase A”.
